Assay [1] addresses T1, human LAG3, full length, stably expressed on cells (human, UniProt P18627 23-525).
T1 construct: whole, on cells; also called CHOK1-human LAG3
T1 sequence (looked up): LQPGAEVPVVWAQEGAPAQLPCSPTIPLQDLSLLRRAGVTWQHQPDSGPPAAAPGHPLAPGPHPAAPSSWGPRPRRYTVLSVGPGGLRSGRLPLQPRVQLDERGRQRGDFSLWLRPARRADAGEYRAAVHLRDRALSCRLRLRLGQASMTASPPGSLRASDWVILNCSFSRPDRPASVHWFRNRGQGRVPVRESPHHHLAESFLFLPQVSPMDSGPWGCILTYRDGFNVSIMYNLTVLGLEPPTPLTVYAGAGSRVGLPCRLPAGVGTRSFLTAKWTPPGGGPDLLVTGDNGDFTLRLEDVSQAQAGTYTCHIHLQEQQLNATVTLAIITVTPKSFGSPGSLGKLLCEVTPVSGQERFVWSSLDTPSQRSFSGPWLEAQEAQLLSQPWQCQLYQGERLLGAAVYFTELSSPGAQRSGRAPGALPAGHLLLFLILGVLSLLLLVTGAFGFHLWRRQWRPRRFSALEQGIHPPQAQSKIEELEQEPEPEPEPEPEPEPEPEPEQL
As to the kind of experiment: FACS on 293F-human LAG3 cells. How it is done:
(§1) Briefly the antibodies were incubated with 2×10⁵ target cells at 4° C. for 1 hour. After washing, fluorescence labeled anti-mouse IgG 2nd antibody (Life Technologies) was added and incubated at 4° C. for 1 hour. Geometric median fluorescence intensity (MFI) was detected and EC₅₀ was calculated using GraphPad Prism9.0.

Assay [2] deals with T2, hFc tagged human LAG3 D1-D2 recombinant protein (human, UniProt P18627 23-261).
T2 construct: range 23-261; generated by Chempartner; also called hLAG3 D1-D2; not shown: human IgG Fc tag
T2 sequence (looked up): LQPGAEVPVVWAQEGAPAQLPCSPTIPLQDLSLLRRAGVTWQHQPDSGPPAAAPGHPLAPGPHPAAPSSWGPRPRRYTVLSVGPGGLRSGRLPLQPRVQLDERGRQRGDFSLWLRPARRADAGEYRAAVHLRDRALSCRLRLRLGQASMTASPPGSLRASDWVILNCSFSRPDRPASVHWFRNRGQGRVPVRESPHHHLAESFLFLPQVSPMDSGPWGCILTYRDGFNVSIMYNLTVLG
As to the kind of experiment: ELISA, coated hFc-hLAG3 D1-D2. Here is the method: Binding activity of the purified hybridoma antibodies against human LAG3 was detected by ELISA assay using hFc tagged human LAG3 D1-D2 recombinant protein. Briefly the antibodies were incubated with ELISA microplate coated antigens at 37° C. for 1 hour. After washing, horseradish peroxidase (HRP) labeled anti-human IgG 2nd Ab (Sigma) was added and incubated at 37° C. for 1 hour. Then, 100 μl/well of TMB solution (Biotechnology) was added. After incubation for 15 minutes at room temperature, the reaction was stopped by the addition of 50 μl of 1N HCl. OD 450 nm was read and EC₅₀ was calculated using GraphPad Prism9.0.
In general terms: In an ELISA, binding on a coated surface is turned into a signal by an enzyme label.

Assay [3] has as its target T3, hFc tagged human LAG3 ECD recombinant protein (human, UniProt P18627 23-450).
T3 construct: range 23-450; also called biotin labelled hFc tagged human LAG3 ECD; not shown: human IgG Fc tag
T3 sequence (looked up): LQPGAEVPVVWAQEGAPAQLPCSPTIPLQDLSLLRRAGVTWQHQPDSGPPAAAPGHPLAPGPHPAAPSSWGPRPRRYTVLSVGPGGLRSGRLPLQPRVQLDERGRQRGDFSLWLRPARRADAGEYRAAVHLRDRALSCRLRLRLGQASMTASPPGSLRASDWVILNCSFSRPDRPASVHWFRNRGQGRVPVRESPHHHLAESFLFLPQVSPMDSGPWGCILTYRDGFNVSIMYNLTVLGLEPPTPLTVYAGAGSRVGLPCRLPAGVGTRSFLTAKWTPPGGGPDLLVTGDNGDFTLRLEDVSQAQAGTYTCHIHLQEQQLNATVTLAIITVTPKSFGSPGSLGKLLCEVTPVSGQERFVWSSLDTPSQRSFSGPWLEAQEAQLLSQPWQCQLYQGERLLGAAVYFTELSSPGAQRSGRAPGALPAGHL
As to the kind of experiment: competitive ELISA: excess competitor, biotin hFc-LAG3 ECD, coated BMS-986016. How it is done: (§2) Competitive ELISA assay was used for epitope binning of the purified hybridoma antibodies. […] After washing, HRP labeled anti-streptavidin (SA) 2nd antibody (Sigma) was added and incubated at 37° C. for 1 hour. Then, 100 μl/well of TMB solution (Biotechnology) was added. After incubation for 15 minutes at room temperature, the reaction was stopped by the addition of 50 μl of 1N HCl. OD 450 nm was read. Competition ratio was calculated.

Assay [4] deals with T4, mouse LAG3, full length, stably expressed on CHOK1 cells (mouse, UniProt Q61790 24-521).
T4 construct: whole, on cells
T4 sequence (looked up): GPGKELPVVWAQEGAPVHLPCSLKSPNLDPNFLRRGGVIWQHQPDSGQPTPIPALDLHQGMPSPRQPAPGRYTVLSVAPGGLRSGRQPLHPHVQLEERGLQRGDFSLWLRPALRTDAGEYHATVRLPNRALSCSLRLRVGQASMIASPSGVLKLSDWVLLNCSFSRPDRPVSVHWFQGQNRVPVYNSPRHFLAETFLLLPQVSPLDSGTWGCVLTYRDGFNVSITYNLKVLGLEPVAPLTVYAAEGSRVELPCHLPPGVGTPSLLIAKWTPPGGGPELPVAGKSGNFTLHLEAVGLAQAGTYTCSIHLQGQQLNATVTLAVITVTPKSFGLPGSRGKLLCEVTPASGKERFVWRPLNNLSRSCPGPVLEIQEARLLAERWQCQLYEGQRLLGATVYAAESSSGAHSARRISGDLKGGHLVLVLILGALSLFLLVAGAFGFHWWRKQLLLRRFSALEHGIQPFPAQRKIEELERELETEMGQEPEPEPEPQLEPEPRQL
As to the kind of experiment: FACS on CHOK1 cells expressing mouse LAG3. Here is the method: as §1

The target of assay [5] is T5, cyno LAG3, full length, stably expressed on 293F cells (cyno).
T5 construct: whole, on cells
As to the kind of experiment: FACS on 293F-cyno LAG3 cells, 20 nM antibody. Here is the method:
as §1

For assay [6], the target named is T3, hFc tagged human LAG3 ECD recombinant …. As to the kind of experiment: competitive ELISA: excess competitor, biotin hFc-LAG3 ECD, coated BAP-050. How it is done: as §2
For assay [7] the target is unchanged. As to the kind of experiment: competitive FACS: hFc-LAG3 ECD binding to Raji cells (MHC II). Here is the method:
Competitive FACS assay was used to determine whether the purified hybridoma antibodies can block LAG3 and MHC II interaction. […] After washing, dye labeled anti-human Fc 2nd antibody (Sigma) was added and incubated at 37° C. for 1 hour. Fluorescence intensity was detected.

Residue numbers refer to the chain shown, from its start.

The text below walks through data of US20250313625A1 (ELPISCIENCE SUZHOU BIOPHARMA, published 2025).

B1: Antibody 035 (antibody, V domains shown)
VH: QVQLQQSGAELARPGASVKLSCKASGYSFTSYGINWVKQRTGQGLEWIGEIYPRSGNTYYNEKFKDKATLTADKSSSTAYMELRSLTSEDSAVYFCARGGTYDGYYYAMDFWGQGTSVTVSS
VL: DIVLTQSPASLAVSLGQRATISCRASESVDNFGSSFLHWYQQKPGQAPKLLIYRASNLESGIPARFSGSGSRTDFTLTINPVETDDVATYYCQQVNKDPRTFGGGTKLEIK
notes: mouse hybridoma antibody
For B1, the EC50 (as a rule, the concentration at which the effect is half-maximal) in assay [1] is 0.66 nM; in assay [2], 0.06 nM. For the same molecule, the “% competition” value was determined as 21.7% in assay [3] and 91.9% in assay [6]. The binding result in assay [4] is given as “no binding”. Moreover, the “MFI at 20 nM” value in assay [5] is 155 MFI. Further, the IC50 – broadly, the point on the concentration scale where inhibition reaches its midpoint – in assay [7] amounted to 5 nM. For the same molecule, the “TOP blocking (%)” value in assay [7] was determined as 99.2%.

B2: Antibody 021 (antibody, V domains shown)
VH: DIQLQESGPGLVKPSQSLSLTCSVTGYSITSGYYWNWIRQFPGNKLEWMGDISYDGGNNYNPSLKNRISITRDTSKNQFFLKLNSVTTEDTATYYCARDITLTGAMDYWGQGTSVTVSS
VL: B1 VL with F32Y, S34I, L37M, K43R, A47P, V95S, R100Y
notes: mouse hybridoma antibody
Consider B2, for which the EC50 in assay [1] was determined as 5.52 nM; in assay [2], 0.02 nM. The “% competition” value in assay [3] came out at 6.9%; in assay [6] it was 57.1%. Moreover, the binding result in assay [4] is “no binding”. In addition, in assay [5], the “MFI at 20 nM” value amounted to 105 MFI. In assay [7], the IC50 turned out to be 4 nM. The “TOP blocking (%)” value in assay [7] was 98.6%.

B3: Antibody 047 (antibody, V domains shown)
VH: B1 VH with I34V, K63R, K65G, L83I, F111Y
VL: B1 VL with L37M
notes: mouse hybridoma antibody
Regarding B3, the figures for the EC50 in assay [1] and in assay [2] were 1.14 nM and 0.04 nM, respectively. For the same molecule, the “% competition” value worked out at 8.9% in assay [3] and 87.4% in assay [6]. In addition, in assay [4], the binding result is “no binding”. The “MFI at 20 nM” value in assay [5] is 129 MFI. Moreover, in assay [7], the IC50 turned out to be 7.7 nM. Further, in assay [7], the “TOP blocking (%)” value is 82.7%.

B4: Antibody 057 (antibody, V domains shown)
VH: B1 VH with Y27F, F64L, D66G, K67E, K74R, F111Y
VL: B1 VL with D1N, L37M, S67G, R72G, N80D
notes: mouse hybridoma antibody
B4: the EC50 in assay [1] was found to be 1.04 nM; in assay [2], 0.02 nM. For the same molecule, the results for the “% competition” value in assay [3] and in assay [6] were 29.3% and 87.7%, respectively. The binding result in assay [4] is “no binding”. Besides, the “MFI at 20 nM” value in assay [5] came out at 83.4 MFI. Also, the IC50 in assay [7] was 5.1 nM. The “TOP blocking (%)” value in assay [7] stood at 87.6%.

B5: Antibody 038 (antibody, V domains shown)
VH: DVQVQESGPGLVKPSQSLSLTCSVTGYSITSGYYWNWIRQFPGNKLEWMGYISYDGSNEYNLSLKNRLSITRDTSKNQFFLKLNSVTTEDTATYYCAREEDGYYGGMDYWGQGTSVTVSS
VL: DIVMTQSHKFMSASVGVRVSITCRASQDVDTAVAWYQQKPGQSPKLLIYWASTRHTGVPDRFTGSGSGTDFTLTISNVQSEDLADYFCQQYSSYPYTFGGGTKLEIK
notes: mouse hybridoma antibody
In the case of B5, the EC50 in assay [1] was determined as 1.12 nM; in assay [2], 0.07 nM. The entries for the “% competition” value in assay [3] and in assay [6] were 33.5% and 6.4%, respectively. The binding result in assay [4] was “no binding”. The “MFI at 20 nM” value in assay [5] was determined as 142 MFI. The IC50 in assay [7] is 4.2 nM. Besides, the “TOP blocking (%)” value in assay [7] was determined as 100%.

B6: Antibody 033 (antibody, V domains shown)
VH: EVQLQQSGAELVRPGASVKLSCTASDFNIKDDYIHWVKQRPEQGLEWIGWIDLENGDTEYASKFQGKATITADTSSNTAYLQLSSLTSEDTAVYYCTTKGSHWGQGTLVTVSA
VL: DVVMTQIPLSLPVSLGDQASISCRSSQSLVYSNGNTYLNWYLQKPGQSPKLLIHKVSNRFSGVPDRFSGSGSGTDFTLKISRVEAEDLGVYFCSQSTHVPYTFGGGTKLEIR
notes: mouse hybridoma antibody
As to B6, the EC50 in assay [1] worked out at 2.33 nM; in assay [2], 0.07 nM. Also, the “% competition” value in assay [3] was 92.5%; in assay [6], 3.8%. Moreover, in assay [4], the binding result is on record as “no binding”. Besides, in assay [5], the “MFI at 20 nM” value stood at 83.4 MFI. Also, in assay [7], the IC50 was 4.8 nM. Further, the “TOP blocking (%)” value in assay [7] stood at 98.8%.
